Test: label from the status in PepcDB records
For “MGHIKKGELTQEEKELLEVIGKGTVQEAGRLLSSKNVHVNCLDENGMTPLMHAAYKGKLEMCKLLLRHGADASCHQHEHGYTALMFAALSGNKDITWVMLEAGAETDVVNSVGRTAAQMAAFVGQHDCVAIINNFFPRERLDYYTKPQGLDKEPKQPPKLAGPLHKIITTTNLHPVKIVMLVSENPLLADAAALGKCYRVMDLICEKCMKQRDMNEVLAMKMHYISCIFQKCITFLKEGENKLDTLIRSLLKGRASDGFPVYQEKIIRESIRKFPYCEATLLQQLVRSIAPVEIGSDPTAFSVLTQAITGQVGFVDVEFCTTCGEKGASKRCSVCKMVIYCDQTCQKTHWFAHKKMCKSLKDVYEKQQIEAAKHKRQEEKNGNPNVSSNHVNEDQPEAEEGITQENSIPSDSVEGEKEAANDTGLASAQDAPTGPQLSEE”, the protein production was “failed”.
In the case of “MGHKQSVDSRGKGRKVPGSSSMVQKHRVESSGGAIISGPSLFDNLPEDCISNIISFTSPRDACVAASVSKTFESAVNSDSVWDKFLPSDYSSLVPPSRVFSSKKELYFAICDNPVLVEDGGKSFWLEKENGKKCFMLSPKKSMWITWVSTPQYWRWISIPEARFEEVPELLNVCWFEVRGGMNTKELSPGTRYSAYIVFKTKNGCPNLGDVPVEATVGLVGQESSQRHIYFVGPSDQRRDRETRDVTRPTKRKDGWMEAELGQFFNESGCDVVDTSILEIKTPYWKRGLIIQGIEFRPTKSLFYI”, the protein production is reported as “not failed”.
For “MGHPPQLPGGRCPMSQTMDFDTLRRAMADNYEQPEGPARNARAEQLLTEAEKLNIPLAVIEALGHQLKVYNYSSEKDKMFVPFARLLRMWDERPEDFDEYEIHSLHWVFKWMSAGMLGQPHIPLASIEKWLGEMEHRYRLAGHSERAVRSAEFSVANHIGDLARAERAYAAWLAADRDSMADCHACELHDQGWWQARKGADADALEVWRPVVEGEYVCAHEPHAILASSLVPLLRLGRLDEARAHHLRGFRLIRPMESMRGAYADHVEFCALSGNEARALELLAERPAYFTDSGEPRSKLDFMAVVALLMDRLVELGLGEQTVPGPAGRVWSARELAAHARAEALALAARFDERNGTAHVSERARERMDRRPLVDRLPLGVRSTRPAPTAPRPPAAPDSAPAPAVERDLRDVLAEARGRSDALRPDAMDAWAAVARAAGDHELDARDRAEIADHEAMSRGPEGAPLFERAAELYAEAGDPGEALAARARGAYVRALTGHSDDALRTINDLHRQVRALFAKDGTGVRQTAAVLVGRARILVHRVHETEGAGTTVAAAEEAVRELLEFAEPHIAQVRLASRAAEARAMLGELAALTGDAMTAAELLAQAAEGFLAAGLPWFAVEYEARLAGIARELGDAVEAERAARSALEHGVEYLEPAGQAQLHLQLAEVLGTTGQFGPAAEHALEAAHWADEAGEGPTFGAWARHQLGGFLLQQGRWAEAAEVLESALPDLTAETHGDGALVQTQWWLGDCHTELGEHREAAERWLRAAEIARHWPEQRDHAMLAHLAAEALGHAGLPAEADRAYTRAGDLWRDLGNVHGLARALRARAWLAAREEDELDPARELMAQAVRECEAALEGATEGEDGARERLVAELGHTHRQFGDLVARSVQDGDRGADFQGAFEEALGHVTRAVAVFAPLGASALDLRTGAELAAGWLEADLHRPAEATARARAVLAAYANRQEADDETARARCAEADRMLELLGTRTGQ”, the protein production was “failed”.
In the case of “MGHVLIEMMGIKKGDFVLDVGCGTGRQALNVAGIIGPAGKLTGIDPSSYRIELARKKFEGDSSGNVRFLVRQAENLQDIPDNSINHAYFCSSFHWVDDKKTALNEIFRVLRPGGKVGMTTLDRNSPNTMKALIDPILAKFGIERRHEWHRGMKKVTAPELHDLLSGAGFTSISIEPRAVPRKYNSPEEFLQHPEEKDSSRGILRDISNETLEKLRQEITEEFRKAQTPEDIGFGNITLFAIATKAQEGLEHHHHHH”, the protein production is reported as “not failed”.
For “MGIGFKGRKTLLRELVKYMVTLCISLVVLALLYIFINTIAMNTGFSHPANYNEREAEKLAPKLETIDKVTADMIPDTMSYAILNKETKQKTAGTIKEKDLQLVKKKIEKKPYVNYKQKGYLVIERNNEYCVLQYSLRADFSSPLLRKYLPNYELTSICILIILLIIVISIITTYFANRLRKHFETLNVITRYIKEQNLQFTPEFTHIKEFDDVIDSLIEMRDALQSSLEALWRLEKNKKEQIGALAHEIKIPITIIKGNAELLSLSMQNEEQAEYTKYILGAGNQIEQYIYQLIHLSKTEDALTIHLEKASVDELTETLVKDISAYKGNKNINISFKKENLMKEAKIDWQLLHRALLNILTNAVDYTPEGGTVSVHAESILRYFIFL”, the protein production was “failed”.
For “MGIQETDPLTQLSLPPGFRFYPTDEELMVQYLCRKAAGYDFSLQLIAEIDLYKFDPWVLPNKALFGEKEWYFFSPRDRKYPNGSRPNRVAGSGYWKATGTDKIISTEGQRVGIKKALVFYIGKAPKGTKTNWIMHEYRLIEPSRRNGSTKLDDWVLCRIYKKQSSAQKQVYDNGIANAREFSNNGTSSTTSSSSHFEDVLDSFHQEIDNRNFQFSNPNRISSLRPDLTEQKTGFHGLADTSNFDWASFAGNVEHNNSVPELGMSHVVPNLEYNCGYLKTEEEVESSHGFNNSGELAQKGYGVDSFGYSGQVGGFGFM”, the protein production was “failed”.
With “MGIYQWRDKKKPSGGKRRYYYKVKRKYAAGRPPTYTTLSAAEEEERKPVRARGGSYKIKAKKVAFAVVSNPKTGEARKARILRIVETPAHREYARRGIIVKGAVIDTTLGRAVVTSRPGQEGVVNAVLLEEQGQKQLEHHHHHH” the protein production was “not failed”.
In the case of “MGKEAVTGKVRKLTVQLDHQTGDLKGCSRRGPTPRSRAPGAKLSAPEAGPPRRGPLPRGGAGRDTLLGAKATPSSPAARRYVTALGPPQPRGSTDSACAALPQPVPHEPREAAFRLAPASERGASVSPARIPRRRRRVPAMWDPRAARTPPRELAMLLCNKSNAFYNLGKWNEAFLAAKECLQWDPTYVKGYYRAGYSLLHLLQPYEAARMFFEGLRLLQRSPDQLQVPDFLVGIFTTMSSDSIVLQSFLPCFDHIFTTGFSTEVWQYVIQKLAKKGLWHQSFLLLSAKKDRLPSNIHVSELSLQSLFEKYVFIGFYEKLEQVPKLVQWLVSIGANIETIGPNPLHALMRLCIQARESQLFRWVMDQKPEWKEHINHRDDAGCTVLHVAAAHFPGYTSRRQTEDVQMLLSFGADPTLLDGHARTVVDVLKRNKNFRAIDKINSHLEKLASSSKGLSALQEAFISKQ”, the protein production is reported as “failed”.
In the case of “MGKIHELSSVLADQIAAGEVVERPASVVKELVENAVDAHATQVDILVQESGVQSIRVIDDGDGIDDAEVLTAFKRHATSKITSREDLFRVHSLGFRGEALPSIASVADVVMNTSTGATGTSIHYRGGKLLQQSPAPLRQGTDITVTDLFFNTPARLKYLKSPQTELANILDVVNRIALSYPAVAFRLVHNAKELLKTAGRGDLQQVIAGIYGVQNARKMVAIQGSTTDFKLSGFVALPELTRASRQYITVLINGRAIKNQQLTKAVIKGYGSKLMVGRYPIAVIALTMDPLLVDVNVHPTKQEVRLSKEPELAKLVSTTITDRLVDVNLIPSALTNLGSHRREHLNTDQLAMDLNAVSSQYQVADKTTPASTEQFAASLAAATMQPSSATTMVSTTSAQPSAVNRAAVSAVVPSESAASSANQPIMISHRDELTATPVQAFDQRYQSESGALPFGETAEPLETSTAASAPTSEAPDTERFPQLRYLGQMHGTYLLAEADDGMYILDQHAAQERINYEYYRQAIGEVSADQQNLLVPIILDYPTSDVLKIKEKLPLLAELGIHLESFGGNSFIVHAHPTWFKAGQEEDTIREMIDWLLQDDKLTVAQFREKSAIMMSCKRAIKANHHLDDQQARALLAKLPTCENPFNCPHGRPVTVHFTNSDMERMFKRIQDSHEARD”, the protein production is reported as “failed”.
With “MGKIQELSEQLANQIAAGEVVERPASVVKELVENALDAGSTQIDIFIEEAGLKTIQIIDNGEGIAKEDVLNAFKRHATSKIHTRDDLFRIRSLGFRGEALPSIASVSEMIVETATAEEEEGSYVILKGGKVEENRPAALRKGTKMTVSNLFYNTPARLKYVKTIQTELANIGDIVNRLALSHPKVAFRLVHDGHKMMSTTGNGDLKQTIAGIYGISTAKKMLKIEGKDLDFTLTGYVSLPEVTRASRNYLSTIINGRYIKNFALNKAIVAGYGSKLMVGRFPIAVLEIEMDPLLVDVNVHPTKQEVRLSKEKDLMALIEQAIQEVLSQEQLIPNAADNLRFKKKLPPEPKAEQMEIPLSTEQPAVKQRPGSLSYNPATGRFYAEHATDETPASSAPEAVNQTERAVDPMDDPFAPPVPESTSVAEETSAYETSSAAADSANHWETASNEQQVIAEETKITEVPDSEPSLRSSEAADEVFQEEMKLHPEFDANSAASQRELKQALNKLEEERPTERFPELEYFGQMHGTYLFAQSKDGLFIIDQHAAQERIKYEYFREKIGEVSDDLQELLVPIVIDYPNSDALKIKEQKETLAEVGIHLEDFGQNSFIVRAHPTWYPAGEEESIVREMIDMLLTTGSVSVKKFREATAIMMSCKRSIKANHYLNEQQARVLLKDLALCENPFNCPHGRPVLIHFTNSDMERMFKRIQDPH” the protein production was “failed”.

— a protein production outcome set (Wang et al. 2014)
